# From IntAct's records for PubMed 18378898
# B1: Growth/differentiation factor 11 (Mus musculus), Q9Z1W4 (parent)
# chain: MVLAAPLLLGFLLLALELRPRGEAAEGPAAAAAAAAAAAGVGGERSSRPAPSAPPEPDGCPVCVWRQHSRELRLESIKSQILSKLRLKEAPNISREVVKQLLPKAPPLQQILDLHDFQGDALQPEDFLEEDEYHATTETVISMAQETDPAVQTDGSPLCCHFHFSPKVMFTKVLKAQLWVYLRPVPRPATVYLQILRLKPLTGEGTAGGGGGGRRHIRIRSLKIELHSRSGHWQSIDFKQVLHSWFRQPQSNWGIEINAFDPSGTDLAVTSLGPGAEGLHPFMELRVLENTKRSRRNLGLDCDEHSSESRCCRYPLTVDFEAFGWDWIIAPKRYKANYCSGQCEYMFMQKYPHTHLVQQANPRGSAGPCCTPTKMSPINMLYFNDKQQIIYGKIPGMVVDRCGCS
# partner: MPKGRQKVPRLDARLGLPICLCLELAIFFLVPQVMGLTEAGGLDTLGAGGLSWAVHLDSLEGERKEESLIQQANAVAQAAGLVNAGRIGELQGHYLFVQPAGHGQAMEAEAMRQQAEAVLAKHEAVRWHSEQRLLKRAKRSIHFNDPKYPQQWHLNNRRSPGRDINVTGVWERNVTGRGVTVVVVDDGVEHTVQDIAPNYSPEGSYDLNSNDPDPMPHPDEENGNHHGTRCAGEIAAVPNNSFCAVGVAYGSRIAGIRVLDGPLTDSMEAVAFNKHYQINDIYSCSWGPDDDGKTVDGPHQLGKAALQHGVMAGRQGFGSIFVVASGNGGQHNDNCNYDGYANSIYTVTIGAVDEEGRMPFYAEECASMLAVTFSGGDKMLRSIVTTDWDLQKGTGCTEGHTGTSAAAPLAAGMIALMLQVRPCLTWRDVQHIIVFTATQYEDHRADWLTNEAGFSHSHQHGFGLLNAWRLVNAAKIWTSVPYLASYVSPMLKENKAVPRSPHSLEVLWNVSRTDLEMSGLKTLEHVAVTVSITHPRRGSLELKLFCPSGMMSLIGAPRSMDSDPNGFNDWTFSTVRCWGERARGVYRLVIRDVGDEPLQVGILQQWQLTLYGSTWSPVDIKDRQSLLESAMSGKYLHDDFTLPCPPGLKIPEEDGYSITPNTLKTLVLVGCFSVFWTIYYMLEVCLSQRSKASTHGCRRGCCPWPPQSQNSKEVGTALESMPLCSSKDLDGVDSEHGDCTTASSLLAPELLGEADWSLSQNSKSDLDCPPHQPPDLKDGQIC
# B2: Growth/differentiation factor 11 (Mus musculus), Q9Z1W4 (parent)
# chain: B1 chain
# B3: Growth/differentiation factor 11 (Mus musculus), Q9Z1W4 (parent)
# chain: B1 chain
# partner: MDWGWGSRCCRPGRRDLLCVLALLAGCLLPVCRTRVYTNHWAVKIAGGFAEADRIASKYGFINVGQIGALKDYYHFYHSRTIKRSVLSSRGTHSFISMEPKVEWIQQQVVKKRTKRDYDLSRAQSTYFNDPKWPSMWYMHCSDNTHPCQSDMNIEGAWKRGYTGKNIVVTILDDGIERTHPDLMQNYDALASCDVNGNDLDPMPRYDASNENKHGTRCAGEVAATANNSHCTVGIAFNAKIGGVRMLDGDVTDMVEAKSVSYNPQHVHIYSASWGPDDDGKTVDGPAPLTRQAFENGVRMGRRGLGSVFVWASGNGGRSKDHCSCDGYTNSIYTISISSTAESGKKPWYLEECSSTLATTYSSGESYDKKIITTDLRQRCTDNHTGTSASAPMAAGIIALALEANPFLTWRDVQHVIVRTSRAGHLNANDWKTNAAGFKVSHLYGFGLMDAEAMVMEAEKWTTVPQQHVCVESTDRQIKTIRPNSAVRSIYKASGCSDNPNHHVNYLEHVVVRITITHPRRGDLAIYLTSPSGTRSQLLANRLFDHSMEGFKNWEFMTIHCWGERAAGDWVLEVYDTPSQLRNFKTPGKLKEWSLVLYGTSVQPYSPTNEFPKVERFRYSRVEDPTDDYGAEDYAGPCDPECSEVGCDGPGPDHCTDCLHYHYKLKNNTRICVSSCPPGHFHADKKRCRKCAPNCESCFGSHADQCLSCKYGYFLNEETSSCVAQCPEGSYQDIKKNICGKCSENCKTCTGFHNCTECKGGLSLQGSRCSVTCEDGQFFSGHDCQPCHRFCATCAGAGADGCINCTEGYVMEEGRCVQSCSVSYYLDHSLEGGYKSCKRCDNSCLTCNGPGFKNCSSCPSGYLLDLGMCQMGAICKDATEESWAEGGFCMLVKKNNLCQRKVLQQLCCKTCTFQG
# B4: Growth/differentiation factor 11 (Mus musculus), Q9Z1W4 (parent)
# chain: B1 chain
# partner: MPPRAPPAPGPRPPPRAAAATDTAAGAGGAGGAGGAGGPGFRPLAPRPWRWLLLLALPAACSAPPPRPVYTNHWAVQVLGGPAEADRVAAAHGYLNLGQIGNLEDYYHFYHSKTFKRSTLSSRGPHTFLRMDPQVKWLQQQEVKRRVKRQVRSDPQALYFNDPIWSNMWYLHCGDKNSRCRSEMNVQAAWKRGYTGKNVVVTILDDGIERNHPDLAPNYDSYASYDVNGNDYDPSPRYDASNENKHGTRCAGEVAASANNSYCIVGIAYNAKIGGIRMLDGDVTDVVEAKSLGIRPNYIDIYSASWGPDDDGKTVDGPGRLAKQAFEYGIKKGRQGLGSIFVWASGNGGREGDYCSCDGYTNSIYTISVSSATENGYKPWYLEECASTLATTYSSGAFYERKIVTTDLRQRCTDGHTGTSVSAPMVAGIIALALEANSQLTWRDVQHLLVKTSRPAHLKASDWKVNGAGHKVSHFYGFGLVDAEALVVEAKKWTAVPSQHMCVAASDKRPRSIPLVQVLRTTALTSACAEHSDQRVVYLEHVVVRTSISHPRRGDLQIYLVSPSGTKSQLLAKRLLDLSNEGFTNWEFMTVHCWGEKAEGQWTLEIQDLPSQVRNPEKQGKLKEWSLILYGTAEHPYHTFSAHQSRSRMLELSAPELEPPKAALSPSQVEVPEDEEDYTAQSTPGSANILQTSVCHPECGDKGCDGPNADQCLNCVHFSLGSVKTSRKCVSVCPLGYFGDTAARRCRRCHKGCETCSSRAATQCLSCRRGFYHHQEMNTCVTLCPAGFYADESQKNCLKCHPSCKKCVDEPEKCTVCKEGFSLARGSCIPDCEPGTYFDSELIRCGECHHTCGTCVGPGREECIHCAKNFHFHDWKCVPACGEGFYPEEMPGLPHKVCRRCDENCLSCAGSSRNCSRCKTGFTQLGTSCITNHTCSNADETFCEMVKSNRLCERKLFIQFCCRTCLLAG
# Variants of: B1
# Settings: with pcsk7_rat Pcsk7, Q62849
row,effect of a mutation on the interaction,Variant
1,increasing interaction,N297D

# Variants of: B2
# Settings: with furin_human FURIN
row,effect of a mutation on the interaction,Variant
1,increasing interaction,N297D

# Variants of: B3
# Settings: with Pcsk5, P41413-2
row,effect of a mutation on the interaction,Variant
1,increasing interaction,N297D

# Variants of: B4
# Settings: with PCSK6, P29122-1
row,effect of a mutation on the interaction,Variant
1,increasing interaction,N297D
